T1: VLP noro antigen derived from the norovirus GII/4, composed by associating 90 dimers of VP1 each including … (norovirus GII/4, UniProt P54635 1-539)
T1 construct: Virus-like particle of 90 VP1 dimers (180 copies); also called solid phase VLP
T1 chain: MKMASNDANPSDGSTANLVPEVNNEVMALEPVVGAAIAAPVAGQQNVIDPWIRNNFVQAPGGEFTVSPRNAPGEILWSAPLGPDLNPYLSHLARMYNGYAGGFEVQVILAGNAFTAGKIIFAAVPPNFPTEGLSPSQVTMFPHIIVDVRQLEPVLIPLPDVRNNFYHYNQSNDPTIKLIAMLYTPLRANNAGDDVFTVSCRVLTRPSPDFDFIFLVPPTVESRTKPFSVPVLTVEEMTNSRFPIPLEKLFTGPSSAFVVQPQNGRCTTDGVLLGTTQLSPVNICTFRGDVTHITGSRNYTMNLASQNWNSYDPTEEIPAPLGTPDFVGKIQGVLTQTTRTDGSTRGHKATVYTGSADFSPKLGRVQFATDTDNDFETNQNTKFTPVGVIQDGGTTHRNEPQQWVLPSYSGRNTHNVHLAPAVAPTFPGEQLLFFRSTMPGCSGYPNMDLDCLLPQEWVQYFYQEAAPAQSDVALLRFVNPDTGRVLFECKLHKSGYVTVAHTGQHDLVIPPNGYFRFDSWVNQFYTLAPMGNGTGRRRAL


Molecular target: T1, VLP noro antigen derived from the …
Assay: SPR (T200, CM3), VLP noro antigen immobilised, antibody as analyte

| Binder | Kd | koff | kon |
| --- | --- | --- | --- |
| Antibody bound to the protein represented by SEQ ID NO: 100 (structural domain SEQ ID NO: 38 - linker - protein molecule SEQ ID NO: 44) (VHH, tags not described) QVQLVESGGGVVQTGGSLRLSCAASGSTFSIGAMGWYRQAPGKQRELVATVNRASRTIYADSVRGRFTISRDNAKNLVYLQMNNLKPEDTAVYYCNVIATSASGRGVTSTSWGQGSQVTVSSGGGGSGGGASGGGGSQVQLVESGGGLVQAGKSLRLSCTASGSIPSIGVMGWHRQAPGKQRELVATISQGGHINYFESVKGRFTISRDNAKNTVYLQMNSLKPEDTGVYYCNAFWLPLRLNDYWGQGTQVTVSSEPKTPKPQSASAA | 2.38 nM | 0.00698 s⁻¹ | 2.93e+06 M⁻¹ s⁻¹ |
| Antibody bound to the protein represented by SEQ ID NO: 102 (N to C: protein molecule SEQ ID NO: 44 - linker - structural domain SEQ ID NO: 39) (VHH, One chain; Made in E. coli; tags not described) QVQLVESGGGLVQAGKSLRLSCTASGSIPSIGVMGWHRQAPGKQRELVATISQGGHINYFESVKGRFTISRDNAKNTVYLQMNSLKPEDTGVYYCNAFWLPLRLNDYWGQGTQVTVSSGGGGSGGGASGGGGSQLQLVESGGGLVQAGGSLRLSCVASGFPFASSAMAWFRQAPGKEREFVASISYRGITTYYAQPVKGRFTMSRDNAKNTVYLQMNSLKPEDTAVYYCYAKSIWGNAYWGQGTQVTVSPEPKTPKPQSASAA | 10.2 nM | 0.0109 s⁻¹ | 1.07e+06 M⁻¹ s⁻¹ |
| VHH antibody consisting of the amino acid sequence represented by SEQ ID NO: 67 (monomer antibody; includes the structural domain SEQ ID NO: 39) (VHH, also called Monomer Antibody 67) VHH: QLQLVESGGGLVQAGGSLRLSCVASGFPFASSAMAWFRQAPGKEREFVASISYRGITTYYAQPVKGRFTMSRDNAKNTVYLQMNSLKPEDTAVYYCYAKSIWGNAYWGQGTQVTVSP | – | 0.0194 s⁻¹ | – |
